Laboratory results: patent publication US11186651B2, “Monoclonal antibody for the detection of the antiretroviral drug emtricitabine (FTC, 2′,3′-dideoxy-5-fluoro-3′-thiacytidine)” (THE UNITED STATES OF AMERICA, AS REPRESENTED BY THE …, priority 2018, dated 2021)

What was measured:
[1] = cited from earlier work
[2] = system: carrier proteins (LPH, BSA); assay: FTC screening assay: EIA on plates coated with carrier proteins; assay type: binding; conditions: plates coated at 5 ug/ml
Description: (§1) An assay was developed to screen the Mabs for reactivity to the FTC conjugates. Microtiter plates were coated with the following reagents: FTC-peptide-dextran, FTC-peptide, FTC-peptide-LPH, FTC-peptide-BSA, FTC heptanoic acid, peptide only, peptide-LPH, peptide-BSA, BSA, LPH, and normal mouse serum (NMS). All compounds were diluted into sodium bicarbonate buffer, pH 9.6, to a concentration of 5 ug/ml; NMS was diluted 1:15. One hundred microliters of each solution was added to a column of the microtiter plate such that each row of the plate allowed the testing of a single clonal supernatant against all of the compounds in a single run. Plates were incubated at 4° C. overnight and then washed 3× with phosphate-buffered saline (PBS) containing 0.05% Tween 20 (PBS-T). Plates were blocked with PBS containing 0.5% nonfat dry milk for 1 hour at 37° C., washed 3×, and dried at 37° C. for 30 minutes. […]
(§2) Clonal supernatants (100 ul) were added to the appropriate wells and incubated at 37° C. for 1 hr. […] Absorbance was measured at 450 nm with a 630 nm reference.
(§3) Persistently reactive clones were further tested using FTC-peptide coated plates. […] Antibodies that yielded a reduction in absorbance versus the sample containing no FTC were selected for optimization in a FTC detection assay.

[3] = FTC screening assay: EIA on FTC-peptide coated plates with competition by free FTC; assay type: binding; conditions: supernatant incubated with free FTC
Description: as §1, §2, §3

[4] = Competitive indirect EIA, reactivity of 5D2 to naturally occurring structural analogs; assay type: binding; conditions: cytidine, cysotine, deoxycytidine, adenine, adenosine, deoxyadenosine, guanine, guanosine, deoxyguanosine, thymine, 5-methyluridine, thymidine, uracil, uridine, deoxyuridine; 12 to 1,000 ug/ml
Text: Because FTC is an analog of cytidine, a competitive indirect EIA was used to evaluate the reactivity of 5D2 to naturally occurring structural analogs consisting of nitrogenous nucleic acid bases, ribonucleosides, and deoxyribonucleosides, including cytidine, cysotine, deoxycytidine, adenine, adenosine, deoxyadenosine, guanine, guanosine, deoxyguanosine, thymine, 5-methyluridine, thymidine, uracil, uridine, and deoxyuridine. For the competitive assay, the concentrations of these analogs ranged from 12 to 1,000 ug/ml which is similar to the range of FTC found in urine. Reactivity was not detected to all of these naturally occurring analogs using this EIA.

[5] = Cross-reactivity test of monoclonal antibody 5D2: FTC; assay type: binding
Description: (§4) The monoclonal antibody 5D2 was tested for cross-reactivity. 5D2 was determined to be specific for FTC, and to not bind to the following compounds: […]

[6] = Cross-reactivity test of monoclonal antibody 5D2: related compounds; assay type: binding; conditions: Lamivudine (3TC), FTC-Triphosphate, FTC-Diphosphate, Cytidine, Deoxycytidine, Deoxyuridine, Guanosine, Deoxyguanosine, Deoxyadenosine, Adenosine, Thymidine, Uridine, 5-Methyluridine
Description: as §4

Nc1nc(=O)n([C@@H]2CS[C@H](CO)O2)cc1F [FTC]
concentration found in serum or plasma ([1]; serum or plasma): 1 to 300 ng/mL | concentration excreted unchanged in urine ([1]; urine): 1000 to 500000 ng/mL

B1: 5D2: mouse IgG2b kappa monoclonal antibody that specifically binds FTC; heavy chain SEQ ID NO: 1, light chain SEQ ID NO: 2 (antibody, listed as Mus musculus)
heavy: QVQLQQPGAELVKPGASVKVSCKASGYTFTSYWMHWVKQRPGQGLEWIGRIHLSDSDTNYNQNFKDKATLTVDKSSRTAHMHLSSLTSADSAVYYCAMGGTFQSNYDTYWGQGTLVTVSAAKTTPPSVYPLAPGCGDTTGSSVTLGCLVKGYFPESVTVTWNSGSLSSSVHTFPALLQSGLYTMSSSVTVPSSTWPSQTVTCSVAHPASSTTVDKKLEPSGPISTINPCPPCKECHKCPAPNLEGGPSVFIFPPNIKDVLMISLTPKVTCVVVDVSEDDPDVRISWFVNNVEVHTAQTQTHREDYNSTIRVVSALPIQHQDWMSGKEFKCKVNNKDLPSPIERTISKIKGLVRAPQVYILPPPAEQLSRKDVSLTCLVVGFNPGDISVEWTSNGHTEENYKDTAPVLDSDGSYFIYSKLDIKTSKWEKTDSFSCNVRHEGLKNYYLKKTISRSPGK
light: DIQMTQSPASLSASVGETVTITCRASGNIHNYLAWYQQKQGKSPQLLVYNAKTLTDGVPSRFSGSGSGTQYSLKINSLQPEDFGNYYCQHFLYTPYTFGGGTKLEMRRADAAPTVSIFPPSSEQLTSGGASVVCFLNNFYPKDINVKWKIDGSERQNGVLNSWTDQDSKDSTYSMSSTLTLTKDEYERHNSYTCEATHKTSTSPIVKSFNRNEC
reactivity with the carrier proteins [2]: did not react | reactivity with FTC (reduction in absorbance versus sample containing no FTC) [3]: competitively reactive | reactivity to naturally occurring analogs [4]: not detected | specificity for FTC [5]: specific | binding to related compounds (cross-reactivity) [6]: not bind
